Laboratory results taken from article PMC5040827.
pKd: −log10 of the molar value.

These substances were tested against GL_(CDR3rev4) (assay: SPR). Conditions: average of two or three experiments.

Row | Substance | pKd
1 | BG505 T332N gp120 5MUT (V134Y; N136P; I138L; D140N; one further mutation not printed) | < 4.47
2 | BG505 T332N gp120 7MUT (T135A; T139I; V134Y; N136P; I138L; D140N; one further mutation not printed) | < 4.44
3 | BG505 T332N gp120 10MUT (T135A; T139I; V134Y; N136P; I138L; D140N; N137F; T320F; Q328M; one further mutation not printed) | < 3.82
4 | BG505 T332N gp120 3MUT (T135A; T139I; one further mutation not printed) | < 4.55

What follows are substances tested against MD39-10MUT (assay: SPR). Conditions: not given.

Row | pKd | Substance
5 | 8.52 | PGT128
6 | 8.22 | PGDM1400
7 | 7.46 | PGT151
8 | 9.10 | PGT121
9 | 6.85 | VRC01

What follows are substances tested against PGT121 (assay: SPR). Conditions: average of two or three experiments.

Row | Substance | pKd
10 | BG505 T332N gp120 5MUT (V134Y; N136P; I138L; D140N; one further mutation not printed) | 8.24
